The values that follow come from paper PMC3422313.

pKd: −log10 of the molar value.

Assay [1] has as its target p24:V3 CC mutant (chimeric p24:V3 protein with A14C/E45C in the p24 sequence) (HIV) (UniProt P12493). Kind of assay: cross-linking; disulfide cross-linking by dialysis into assembly buffer (50 mM Tris pH 8, 1 M NaCl) with beta ME reduced to 20 mM or lower; read by non-reducing SDS-PAGE, 10% gel.
The target of assay [2] is human monoclonal anti-V3 antibody 447-52D (ARP3219) (human). Description: SPR; BIAcore 3000; mAb 447-52D immobilised on CM5 by EDC/NHS (about 2000 RU); p24:V3 proteins as analyte 0.10-4.0 uM; HBS (10 mM Hepes, 150 mM NaCl, 3 mM EDTA, pH 7.4), 0.1 mM TCEP; 20 ul/min; 25 C; 1:1 Langmuir fit. On the technique in general: In SPR one partner is held on a chip, and binding of the other changes the refractive index at the surface.
human monoclonal anti-V3 antibody 447-52D (ARP3219) (human), sequence (heavy, as listed by the source, chain 1 of 2): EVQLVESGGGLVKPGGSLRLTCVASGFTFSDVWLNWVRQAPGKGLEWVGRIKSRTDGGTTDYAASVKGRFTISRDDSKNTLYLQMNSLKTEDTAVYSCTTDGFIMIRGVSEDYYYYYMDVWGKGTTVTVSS
human monoclonal anti-V3 antibody 447-52D (ARP3219) (human), sequence (light, as listed by the source, chain 2 of 2): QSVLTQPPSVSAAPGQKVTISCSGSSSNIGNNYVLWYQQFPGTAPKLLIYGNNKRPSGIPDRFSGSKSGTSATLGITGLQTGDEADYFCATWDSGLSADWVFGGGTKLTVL

The target of assay [3] is p24:V3 CCAA mutant (chimeric p24:V3 protein with A14C/E45C/W184A/M185A in the p24 sequence) (HIV). Kind of assay: SEC; Superdex-200 PC; 30 mM Tris pH 8.0, 300 mM NaCl, 2 mM bME; 0.04 mL/min; compared with aldolase (158 kDa) and ferritin (440 kDa). On the technique in general: In gel filtration, larger molecules generally elute earlier.
For assay [4] the target is unchanged. Description: cross-linking; disulfide cross-linking by dialysis into assembly buffer (50 mM Tris pH 8, 1 M NaCl) with beta ME reduced to 20 mM or lower; read by non-reducing SDS-PAGE, 10% gel.
Assay [5] deals with p24:V3 WT chimera (HIV p24 CA protein with the full V3 loop in place of the cyclophillin binding loop) (HIV) (UniProt P12493). Kind of assay: SEC; Superdex-200 PC; 30 mM Tris pH 8.0, 300 mM NaCl, 2 mM bME; 0.04 mL/min; compared with aldolase (158 kDa) and ferritin (440 kDa).

On to “p24:V3 CC mutant (chimeric p24:V3 protein with A14C/E45C in the p24 sequence) (from UniProt P12493 101-500)”, for which the stoichiometry N (commonly a count of units in the complex or per binding partner) in assay [1] stood at 6. Also, the pKd – broadly, the Kd on a negative log10 scale, so that one unit is a factor of ten – in assay [2] is 4.87.

For the substance “p24:V3 CCAA mutant (chimeric p24:V3 protein with A14C/E45C/W184A/M185A in the p24 sequence)”, the stoichiometry N in assay [3] and in assay [4] was 6 throughout.

For “p24:V3 WT chimera (HIV p24 CA protein with the full V3 loop in place of the cyclophillin binding loop) (from UniProt P12493 1-85; P12493 101-500)”, the stoichiometry N in assay [5] was found to be 6. The same substance showed a negative logarithm of the Kd (pKd) in assay [2] of 5.00.
